In article PMC3880350, “The mononuclear metal center of type-I dihydroorotase from aquifex aeolicus” (BMC Biochemistry, 2013):
Substitutions are numbered along the chain they refer to. In names and notes the source's numbering stands. Values belong to the molecule of their own block, whether it stands above or below them.

What was measured:
[1] = target: T1, A. aeolicus DHO-ATC complex (ATC active site) (Aquifex aeolicus, UniProt O66726); test: X-ray crystal structure, […] Å; assay type: binding; conditions: crystal soaked in 1 mM PALA, 15 mM dihydroorotate, pH 5, bisubstrate analogue, mutations only in the DHO partner
T1 construct: gene pyrB; both with 3 kDa N-terminal His tag (pRSETC), E. coli BL21(DE3); with Dihydroorotase

[2] = target: T2, A. aeolicus DHO-ATC complex (DHO active site) (Aquifex aeolicus, UniProt O66990, H180A/H232A); test: X-ray crystal structure, […] Å; assay type: binding; conditions: crystal soaked in 15 mM dihydroorotate, 1 mM PALA, pH 5; DHO active site with one zinc
T2 construct: gene pyrC; both subunits full length with 3 kDa N-terminal His tag (pRSETC), expressed separately in E. coli BL21(DE3), mixed equimolar, dodecamer (6 DHO + 6 ATC) isolated by gel filtration; DHO 422 residues; with Aspartate carbamoyltransferase catalytic subunit

[3] = substrate: O=C1C[C@@H](C(=O)O)NC(=O)N1; test: colorimetric carbamoyl aspartate formation, saturation curve; assay type: biochemical, Aquifex aeolicus
From the text: colorimetric carbamoyl aspartate formation, saturation curve on A. aeolicus DHO-ATC complex (DHO active site)

[4] = target: T3, Aquifex aeolicus dihydroorotase (DHO) subunit, His180Ala mutant (Aquifex aeolicus, UniProt O66990 1-422, His180Ala); test: SEC; purified subunits mixed in an equimolar ratio; complex isolated by gel filtration on a Sephacryl S-300 column; composition analysed by SDS-PAGE and ATC and DHO assays; conditions: both partners purified
T3 construct: Dihydroorotase (pyrC) of Aquifex aeolicus with His180 replaced by alanine; made by PCR on the plasmid that encodes the DHO subunit; Same construct as m1 with the point mutation
T3 sequence: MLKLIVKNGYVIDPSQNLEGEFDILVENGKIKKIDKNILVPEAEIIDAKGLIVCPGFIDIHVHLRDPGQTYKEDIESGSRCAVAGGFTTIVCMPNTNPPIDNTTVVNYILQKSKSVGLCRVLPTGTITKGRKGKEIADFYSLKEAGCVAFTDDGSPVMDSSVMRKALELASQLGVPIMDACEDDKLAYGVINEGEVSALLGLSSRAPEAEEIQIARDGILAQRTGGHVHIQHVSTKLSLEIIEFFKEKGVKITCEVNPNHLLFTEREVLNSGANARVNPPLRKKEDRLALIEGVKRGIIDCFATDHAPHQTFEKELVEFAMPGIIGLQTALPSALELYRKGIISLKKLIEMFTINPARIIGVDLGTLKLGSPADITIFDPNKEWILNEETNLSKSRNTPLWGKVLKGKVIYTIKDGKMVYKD

[5] = target: T4, Aquifex aeolicus dihydroorotase (DHO) subunit, His180Ala/His232Ala double mutant (Aquifex aeolicus, UniProt O66990 1-422, His180Ala | His232Ala); test: as above; conditions: both partners purified
T4 construct: Dihydroorotase (pyrC) of Aquifex aeolicus with His180 and His232 replaced by alanine; made by PCR on the plasmid that encodes the DHO subunit; 422 C-alpha atoms in the structure; Same construct as m1 with the two point mutations; In the crystal one zinc and dihydroorotate in the active site; also called DHO Double Mutant; mutant DHO
T4 sequence: T3 sequence with H232A

[6] = target: T5, Aquifex aeolicus dihydroorotase (DHO) subunit, wild type (Aquifex aeolicus, UniProt O66990 1-422); test: as above; conditions: both partners purified
T5 construct: Dihydroorotase (pyrC) of Aquifex aeolicus; gene amplified by PCR from the genome and inserted into pRSETC; One zinc ion per subunit; also called Wild Type DHO; A. aeolicus DHO
T5 sequence: T3 sequence with A180H

[7] = target: T6, Aquifex aeolicus dihydroorotase (DHO) subunit, His232Ala mutant (Aquifex aeolicus, UniProt O66990 1-422, His232Ala); test: as above; conditions: both partners purified
T6 construct: Dihydroorotase (pyrC) of Aquifex aeolicus with His232 replaced by alanine; made by PCR on the plasmid that encodes the DHO subunit; Same construct as m1 with the point mutation
T6 sequence: T3 sequence with A180H, H232A

[8] = target: the molecule itself; test: crystal structure; DHO double mutant-ATC complex, hanging drop, room temperature, 30% ethylene glycol with barium chloride; crystals soaked in 1 mM PALA and 15 mM dihydroorotate at pH 5; 2.2 Å
[9] = 250 mM Tris acetate (Figure 7; Methods: 50 mM), pH 8.3, 72°C, mutant DHO reconstituted with native ATC

Molecule: O=C(O)C[C@H](NC(=O)CP(=O)(O)O)C(=O)O [PALA]
X-ray crystal structure, 2.2 Å [1]: bisubstrate analog, N-phosphoacetyl L-aspartate (PALA) bound to the active site of the A. aeolicus ATC

Molecule: O=C1C[C@@H](C(=O)O)NC(=O)N1 [dihydroorotate]
X-ray crystal structure, 2.2 Å [2]: one DHO subunit with one zinc atom and dihydroorotate in its active site

B1: A. aeolicus DHO-ATC complex (DHO active site) (Aquifex aeolicus VF5) (protein)
chain: T3 sequence with A180H
notes: both subunits full length with 3 kDa N-terminal His tag (pRSETC), expressed separately in E. coli BL21(DE3), mixed equimolar, dodecamer (6 DHO + 6 ATC) isolated by gel filtration; DHO 422 residues; with Aspartate carbamoyltransferase catalytic subunit
Km ([3]; no exogenous zinc, 250 mM Tris acetate (Figure 4; Methods: 50 mM), pH 8.3, 75°C (Figure 4: 72°C), DHO reverse direction (hydrolysis)): 1520 ± 300 µM

B2: A. aeolicus DHO-ATC complex (DHO active site) (Aquifex aeolicus VF5; H180A/H232A) (protein)
chain: T3 sequence with H232A
notes: as for B1
Km [3, 9]: 1550 ± 300 µM

B3: A. aeolicus DHO-ATC complex (DHO active site) (Aquifex aeolicus VF5; H232A) (protein)
chain: T3 sequence with A180H, H232A
notes: as for B1
Km [3, 9]: 1340 ± 220 µM

B4: A. aeolicus DHO-ATC complex (DHO active site) (Aquifex aeolicus VF5; H180A) (protein)
chain: T3 sequence
notes: as for B1
Km [3, 9]: 1650 ± 260 µM

binding result [4]: binds | binding result [5]: binds | binding result [6]: binds | binding result [7]: binds
B5: Aquifex aeolicus aspartate transcarbamoylase (ATC) subunit (enzyme)
chain: MRSLISSLDLTREEVEEILKYAKEFKEGKEETIKASAVLFFSEPSTRTRLSFEKAARELGIETYLVSGSESSTVKGESFFDTLKTFEGLGFDYVVFRVPFVFFPYKEIVKSLNLRLVNAGDGTHQHPSQGLIDFFTIKEHFGEVKDLRVLYVGDIKHSRVFRSGAPLLNMFGAKIGVCGPKTLIPRDVEVFKVDVFDDVDKGIDWADVVIWLRLQKERQKENYIPSESSYFKQFGLTKERFEKVKLYMHPGPVNRNVDIDHELVYTEKSLIQEQVKNGIPVRKAIYKFLWT
notes: Aspartate transcarbamoylase (pyrB) of Aquifex aeolicus; gene amplified by PCR from the genome and inserted into pRSETC; 291 residues superposed in the structure; also called native ATC; pyrB product
stoichiometry N [8]: 3
